Data published in article PMC10042821, “Cryo-EM structure of human eIF5A-DHS complex reveals the molecular basis of hypusination-associated neurodegenerative disorders” (Nature Communications, 2023).
Positions count from the first letter of the chain named. One block for each binder: values may come before it.

Assays:
Conditions in all cases: both partners purified
[1] = target: T1, deoxyhypusine synthase Y250A, His-tagged (human, UniProt P49366 1-369, Y250A, RED-tris-NTA 2nd Generation dye on the His tag); experiment: MST; His-tagged DHS variants labelled with RED-tris-NTA 2nd Generation, 8.32 nM; eIF5A titrated, sixteen dilutions 0.00175–57.5 μM; 50 mM Tris, 200 mM NaCl, 5 mM β-ME pH 8; Monolith NT.115, 40% excitation power, 60% MST power; no NAD or SPD
T1 construct: human deoxyhypusine synthase, Uniprot P49366, residues 1-369, site-directed mutant of the pET24d full-length construct; also called DHS Y250A; source: E. coli, purified; not shown: 6xHis, N-terminal, kept
T1 sequence (looked up): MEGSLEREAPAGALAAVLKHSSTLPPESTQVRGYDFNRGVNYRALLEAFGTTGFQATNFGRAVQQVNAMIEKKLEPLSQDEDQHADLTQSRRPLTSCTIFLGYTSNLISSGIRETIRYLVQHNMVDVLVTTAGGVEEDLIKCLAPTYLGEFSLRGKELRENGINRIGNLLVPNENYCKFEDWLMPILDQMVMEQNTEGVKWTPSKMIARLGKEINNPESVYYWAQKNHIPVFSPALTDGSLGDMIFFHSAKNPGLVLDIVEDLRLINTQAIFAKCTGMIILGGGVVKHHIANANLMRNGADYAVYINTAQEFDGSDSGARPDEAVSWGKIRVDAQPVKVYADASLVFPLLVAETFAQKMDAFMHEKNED

[2] = target: T2, deoxyhypusine synthase N173S, patient-derived variant, His-tagged (human, UniProt P49366 1-369, N173S); experiment: MST; Monolith NT.115; 8.32 nM His-tagged DHS labelled with RED-tris-NTA, eIF5A titrated 0.00175-57.5 uM; 50 mM Tris, 200 mM NaCl, 5 mM beta-ME pH 8; free buffer
T2 construct: deoxyhypusine synthase (DHS), Homo sapiens, UniProt P49366, residues 1-369, pathological variant N173S; also called DHS^N173S; source: E. coli, purified from the soluble fraction; His-tagged protein labelled with RED-tris-NTA for MST; not shown: His6, N-terminal, kept
T2 sequence (looked up): T1 sequence (looked up) with N173S, A250Y

[3] = target: T3, deoxyhypusine synthase delY305_I306, patient-derived variant, His-tagged (human, UniProt P49366 1-369, delY305_I306); experiment: as above
T3 construct: deoxyhypusine synthase (DHS), Homo sapiens, UniProt P49366, residues 1-369, pathological variant lacking Y305 and I306; Primarily dimeric by mass photometry; also called DHS^delY305_I306; DHS^del305Y_306I; source: E. coli, purified from the soluble fraction; His-tagged protein labelled with RED-tris-NTA for MST; not shown: His6, N-terminal, kept
T3 sequence (looked up): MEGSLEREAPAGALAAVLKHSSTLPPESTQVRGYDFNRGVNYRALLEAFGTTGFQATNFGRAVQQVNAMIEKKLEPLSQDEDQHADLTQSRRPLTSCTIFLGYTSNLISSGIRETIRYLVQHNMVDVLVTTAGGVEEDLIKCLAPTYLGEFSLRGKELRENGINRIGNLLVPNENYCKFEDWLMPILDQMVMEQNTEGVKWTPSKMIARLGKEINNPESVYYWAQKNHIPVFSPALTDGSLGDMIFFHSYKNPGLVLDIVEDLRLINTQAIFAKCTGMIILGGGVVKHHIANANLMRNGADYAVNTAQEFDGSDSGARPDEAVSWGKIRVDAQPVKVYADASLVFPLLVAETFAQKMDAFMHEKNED

[4] = target: T4, deoxyhypusine synthase E137A, His-tagged (human, UniProt P49366 1-369, E137A); experiment: as above
T4 construct: deoxyhypusine synthase (DHS), Homo sapiens, UniProt P49366, residues 1-369; source: E. coli, purified; His-tagged protein labelled with RED-tris-NTA for MST; not shown: His6, N-terminal, kept
T4 sequence (looked up): T1 sequence (looked up) with E137A, A250Y

- Kd [1]: > 5000 nM
B1: eukaryotic translation factor 5A (eIF5A-1), residues 15-151 (domain or fragment)
chain: not shown
notes: human eIF5A1, residues 15-151, from pET28-MHL (Addgene); The purification protocol removes the tag with TEV; source: E. coli, purified (HisTrap, TEV cleavage, reverse HisTrap, SEC); not shown: His tag, N-terminal, cleaved

- Kd [2]: 115 ± 22.3 nM
- Kd [3]: 80 ± 23.4 nM
- Kd [4]: > 1000 nM
B2: eukaryotic translation factor 5A-1 (eIF5A-1), residues 15-151 (domain or fragment)
chain: not shown
notes: eIF5A1 (eukaryotic translation factor 5A-1), human, residues 15-151, from pET28-MHL (Addgene); The general purification removes the His tag with TEV; A His-tagged eIF5A1 was used only in the hypusination assay; source: E. coli, purified (HisTrap, TEV cleavage, reverse HisTrap, SEC); not shown: His tag, N-terminal, cleaved
